# From the supplement of paper PMC9112550, “Optimization of the antimicrobial peptide Bac7 by deep mutational scanning” (BMC Biology, 2022)
# Test system: Escherichia coli TOP10
# Assay: shrunken log2 fold change of peptide-encoding DNA abundance (4.5 h post-induction vs induction); higher = less antimicrobial activity (less host growth inhibition)
# Settings: time post-induction: 4.5 h; library: site-saturation at positions 5, 18, 19, 20
# 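Note: peptides expressed intracellularly from a pBAD plasmid library in pooled LB shake-flask culture, induced with 0.3% L-arabinose, DNA abundance read by NGS, three biological replicates, DESeq2 with apeglm shrinkage.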
row,Sequence,shrunken log2 fold change
1,RRIRKRPPRLPRPRPRPWYNPRP,-0.00192
2,RRIRMRPPRLPRPRPRPTDTPRP,0.227
3,RRIRERPPRLPRPRPRPYWCPRP,-1.14
4,RRIRDRPPRLPRPRPRPRMEPRP,-0.239
5,RRIRIRPPRLPRPRPRPYLMPRP,-0.143
6,RRIRVRPPRLPRPRPRPFDYPRP,-0.221
7,RRIRHRPPRLPRPRPRPEDEPRP,0.0969
8,RRIRARPPRLPRPRPRPLYMPRP,-0.48
9,RRIRIRPPRLPRPRPRPAWGPRP,0.0665
10,RRIRLRPPRLPRPRPRPIVFPRP,-0.0377
11,RRIRWRPPRLPRPRPRPEFHPRP,0.227
12,RRIRDRPPRLPRPRPRPLHYPRP,-0.0982
13,RRIRNRPPRLPRPRPRPMCWPRP,0.327
14,RRIRIRPPRLPRPRPRPWPHPRP,-0.394
15,RRIRKRPPRLPRPRPRPIPEPRP,0.163
16,RRIRARPPRLPRPRPRPYAGPRP,-0.534
17,RRIRTRPPRLPRPRPRPCGMPRP,-0.0074
18,RRIRWRPPRLPRPRPRPIHKPRP,-0.0298
19,RRIRNRPPRLPRPRPRPNMTPRP,-0.345
20,RRIRPRPPRLPRPRPRPNGLPRP,0.015
21,RRIRRRPPRLPRPRPRPRQDPRP,0.274
22,RRIRARPPRLPRPRPRPRKAPRP,0.0975
23,RRIRRRPPRLPRPRPRPIDDPRP,-0.128
24,RRIRYRPPRLPRPRPRPICAPRP,-0.211
25,RRIRDRPPRLPRPRPRPQNHPRP,-0.34

row,Sequence,shrunken log2 fold change
1,RRIRHRPPRLPRPRPRPYAIPRP,-0.149
2,RRIRSRPPRLPRPRPRPTEFPRP,0.153
3,RRIRWRPPRLPRPRPRPGSTPRP,0.161
4,RRIRRRPPRLPRPRPRPAVMPRP,0.0975
5,RRIRSRPPRLPRPRPRPMWYPRP,-0.0284
6,RRIRTRPPRLPRPRPRPGDNPRP,-0.00277
7,RRIRERPPRLPRPRPRPCYNPRP,-0.137
8,RRIRKRPPRLPRPRPRPPGSPRP,0.618
9,RRIRTRPPRLPRPRPRPPIYPRP,-0.305
10,RRIRARPPRLPRPRPRPGVNPRP,-0.238
11,RRIRQRPPRLPRPRPRPRTTPRP,0.218
12,RRIRPRPPRLPRPRPRPWQNPRP,-0.136
13,RRIRLRPPRLPRPRPRPPSDPRP,0.432
14,RRIRMRPPRLPRPRPRPLDFPRP,-0.129
15,RRIRLRPPRLPRPRPRPYREPRP,-0.134
16,RRIRFRPPRLPRPRPRPGYQPRP,-0.0555
17,RRIRLRPPRLPRPRPRPKDYPRP,-0.0534
18,RRIRHRPPRLPRPRPRPFKVPRP,-0.0904
19,RRIRKRPPRLPRPRPRPHYMPRP,-0.0279
20,RRIRSRPPRLPRPRPRPDGIPRP,-0.0491
21,RRIRHRPPRLPRPRPRPMNFPRP,-0.0483
22,RRIRTRPPRLPRPRPRPHTSPRP,-0.301
23,RRIRQRPPRLPRPRPRPWCEPRP,-0.105
24,RRIRARPPRLPRPRPRPRSGPRP,0.537
25,RRIRKRPPRLPRPRPRPMRRPRP,0.762

row,Sequence,shrunken log2 fold change
1,RRIRMRPPRLPRPRPRPHTGPRP,0.0957
2,RRIRFRPPRLPRPRPRPEVAPRP,-0.088
3,RRIRFRPPRLPRPRPRPPVHPRP,0.119
4,RRIRTRPPRLPRPRPRPIRTPRP,0.063
5,RRIRWRPPRLPRPRPRPCRMPRP,-0.0166
6,RRIRDRPPRLPRPRPRPGPTPRP,0.355
7,RRIRWRPPRLPRPRPRPKVSPRP,0.198
8,RRIRNRPPRLPRPRPRPCLHPRP,-0.888
9,RRIRMRPPRLPRPRPRPTRHPRP,0.889
10,RRIRHRPPRLPRPRPRPRRPPRP,0.385
11,RRIRTRPPRLPRPRPRPYPGPRP,-0.164
12,RRIRDRPPRLPRPRPRPATYPRP,-0.141
13,RRIRLRPPRLPRPRPRPRGCPRP,0.246
14,RRIRKRPPRLPRPRPRPDIAPRP,1
15,RRIRIRPPRLPRPRPRPGNHPRP,-0.227
16,RRIRGRPPRLPRPRPRPQHEPRP,0.0159
17,RRIRPRPPRLPRPRPRPCNKPRP,-0.102
18,RRIRNRPPRLPRPRPRPTALPRP,-0.18
19,RRIRLRPPRLPRPRPRPTVRPRP,-0.107
20,RRIRFRPPRLPRPRPRPRCRPRP,0.109
21,RRIRQRPPRLPRPRPRPWKVPRP,-0.00992
22,RRIRSRPPRLPRPRPRPQMTPRP,-0.0755
23,RRIRCRPPRLPRPRPRPEDQPRP,1.21
24,RRIRDRPPRLPRPRPRPKWSPRP,-0.0182
25,RRIRTRPPRLPRPRPRPEKHPRP,0.0385

row,Sequence,shrunken log2 fold change
1,RRIRARPPRLPRPRPRPFQIPRP,-0.0627
2,RRIRMRPPRLPRPRPRPIHAPRP,-0.0962
3,RRIRSRPPRLPRPRPRPVEHPRP,-0.16
4,RRIRMRPPRLPRPRPRPFMNPRP,-0.196
5,RRIRFRPPRLPRPRPRPSQQPRP,-0.277
6,RRIRWRPPRLPRPRPRPQTSPRP,-0.0118
7,RRIRIRPPRLPRPRPRPMFYPRP,-1.25
8,RRIRARPPRLPRPRPRPAGCPRP,0.648
9,RRIRCRPPRLPRPRPRPNRLPRP,-0.00311
10,RRIRHRPPRLPRPRPRPEYLPRP,0.0871
11,RRIRNRPPRLPRPRPRPIRRPRP,-0.163
12,RRIRFRPPRLPRPRPRPFVHPRP,-0.728
13,RRIRNRPPRLPRPRPRPKGTPRP,0.118
14,RRIRKRPPRLPRPRPRPLRQPRP,0.00205
15,RRIRCRPPRLPRPRPRPCDEPRP,-0.0731
16,RRIRCRPPRLPRPRPRPPGCPRP,0.412
17,RRIRLRPPRLPRPRPRPLHTPRP,-0.289
18,RRIRFRPPRLPRPRPRPEISPRP,-0.048
19,RRIRLRPPRLPRPRPRPQRVPRP,0.0215
20,RRIRTRPPRLPRPRPRPFTFPRP,-0.187
21,RRIRNRPPRLPRPRPRPNYSPRP,-0.364
22,RRIRARPPRLPRPRPRPVTDPRP,-0.0398
23,RRIRPRPPRLPRPRPRPCCFPRP,-0.133
24,RRIRTRPPRLPRPRPRPWADPRP,0.015
25,RRIRDRPPRLPRPRPRPTICPRP,-0.232

row,Sequence,shrunken log2 fold change
1,RRIRGRPPRLPRPRPRPKWEPRP,1.13
2,RRIRIRPPRLPRPRPRPDQPPRP,0.022
3,RRIRLRPPRLPRPRPRPQRFPRP,-0.142
4,RRIRYRPPRLPRPRPRPKRRPRP,0.0144
5,RRIRYRPPRLPRPRPRPCFAPRP,-0.521
6,RRIRWRPPRLPRPRPRPSVQPRP,0.128
7,RRIRNRPPRLPRPRPRPKYRPRP,-0.0413
8,RRIRYRPPRLPRPRPRPQPCPRP,0.025
9,RRIRSRPPRLPRPRPRPDIHPRP,-1.3
10,RRIRNRPPRLPRPRPRPRIGPRP,0.0705
11,RRIRRRPPRLPRPRPRPFGMPRP,-0.0784
12,RRIRVRPPRLPRPRPRPRQRPRP,0.622
13,RRIRIRPPRLPRPRPRPCSCPRP,-0.446
14,RRIRWRPPRLPRPRPRPWNFPRP,-0.188
15,RRIRYRPPRLPRPRPRPFIHPRP,-1.54
16,RRIRDRPPRLPRPRPRPGHRPRP,-0.0741
17,RRIRVRPPRLPRPRPRPPSDPRP,0.197
18,RRIRERPPRLPRPRPRPHNAPRP,-0.192
19,RRIRMRPPRLPRPRPRPPGHPRP,1.03
20,RRIRRRPPRLPRPRPRPVGMPRP,1.08
21,RRIRLRPPRLPRPRPRPRPSPRP,0.435
22,RRIRRRPPRLPRPRPRPQWGPRP,0.323
23,RRIRPRPPRLPRPRPRPILPPRP,0.198
24,RRIRLRPPRLPRPRPRPFSHPRP,-0.262
25,RRIRRRPPRLPRPRPRPEPCPRP,0.388

row,Sequence,shrunken log2 fold change
1,RRIRDRPPRLPRPRPRPSPSPRP,-0.018
2,RRIRQRPPRLPRPRPRPNDCPRP,0.0531
3,RRIRERPPRLPRPRPRPWPPPRP,0.045
4,RRIRWRPPRLPRPRPRPRMCPRP,0.272
5,RRIRIRPPRLPRPRPRPTIMPRP,-0.745
6,RRIRPRPPRLPRPRPRPNEWPRP,-0.203
7,RRIRHRPPRLPRPRPRPMPGPRP,-0.0235
8,RRIRARPPRLPRPRPRPGIWPRP,0.168
9,RRIRIRPPRLPRPRPRPNTEPRP,-0.0443
10,RRIRRRPPRLPRPRPRPPNPPRP,0.691
11,RRIRLRPPRLPRPRPRPFVAPRP,-0.0302
12,RRIRMRPPRLPRPRPRPLFWPRP,0.554
13,RRIRNRPPRLPRPRPRPRWEPRP,0.291
14,RRIRCRPPRLPRPRPRPWVTPRP,-0.652
15,RRIRDRPPRLPRPRPRPSMTPRP,0.237
16,RRIRTRPPRLPRPRPRPDVMPRP,-0.00136
17,RRIRNRPPRLPRPRPRPHRNPRP,-0.176
18,RRIRWRPPRLPRPRPRPQCSPRP,0.221
19,RRIRERPPRLPRPRPRPHQDPRP,-0.0312
20,RRIRCRPPRLPRPRPRPWGKPRP,-0.102
21,RRIRWRPPRLPRPRPRPPAVPRP,0.698
22,RRIRVRPPRLPRPRPRPHHPPRP,-0.131
23,RRIRGRPPRLPRPRPRPGRDPRP,0.358
24,RRIRWRPPRLPRPRPRPQYDPRP,-0.212
25,RRIRERPPRLPRPRPRPLTDPRP,-0.394
